Experimental findings from article PMC11467669 are described below.

The test concerns the target full-length USP8 (a.a. 7-1110) phosphorylated at S718 by AMPK (human) (UniProt P40818). As to the kind of experiment: SEC-MALLS.

full-length USP8 (a.a. 7-1110) phosphorylated at S718 by AMPK (human), sequence (P40818 7-1110): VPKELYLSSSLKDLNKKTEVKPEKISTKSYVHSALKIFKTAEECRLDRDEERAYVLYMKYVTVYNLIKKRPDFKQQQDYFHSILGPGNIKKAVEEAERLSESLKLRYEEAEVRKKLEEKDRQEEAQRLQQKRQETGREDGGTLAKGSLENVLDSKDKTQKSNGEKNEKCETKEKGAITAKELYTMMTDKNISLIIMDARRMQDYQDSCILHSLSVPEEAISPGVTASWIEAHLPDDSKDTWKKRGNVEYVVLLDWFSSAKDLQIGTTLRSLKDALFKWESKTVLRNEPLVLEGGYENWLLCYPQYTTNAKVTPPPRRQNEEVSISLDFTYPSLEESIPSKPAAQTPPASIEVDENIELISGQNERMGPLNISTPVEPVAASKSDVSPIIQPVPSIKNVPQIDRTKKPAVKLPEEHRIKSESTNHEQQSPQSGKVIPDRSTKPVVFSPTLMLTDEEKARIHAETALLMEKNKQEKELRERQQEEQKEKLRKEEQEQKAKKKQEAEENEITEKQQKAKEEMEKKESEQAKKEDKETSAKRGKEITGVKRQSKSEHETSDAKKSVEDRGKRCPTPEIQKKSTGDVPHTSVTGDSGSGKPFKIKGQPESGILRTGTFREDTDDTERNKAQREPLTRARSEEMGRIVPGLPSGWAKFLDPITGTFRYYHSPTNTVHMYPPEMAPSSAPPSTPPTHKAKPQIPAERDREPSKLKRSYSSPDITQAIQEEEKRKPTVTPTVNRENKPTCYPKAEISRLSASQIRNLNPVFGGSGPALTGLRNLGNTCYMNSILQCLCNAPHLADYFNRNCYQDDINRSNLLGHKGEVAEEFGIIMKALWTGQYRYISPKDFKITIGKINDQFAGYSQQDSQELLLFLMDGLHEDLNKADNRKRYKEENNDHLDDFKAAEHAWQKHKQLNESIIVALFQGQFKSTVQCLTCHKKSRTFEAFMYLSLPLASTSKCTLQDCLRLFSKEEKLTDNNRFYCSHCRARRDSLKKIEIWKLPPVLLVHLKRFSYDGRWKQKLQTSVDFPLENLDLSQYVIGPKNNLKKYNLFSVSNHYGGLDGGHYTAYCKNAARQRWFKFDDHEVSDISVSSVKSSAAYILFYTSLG

Substance “14-3-3γ (from UniProt P61981 1-247) (natural protein)” returned a stoichiometry N (14-3-3γ dimer per USP8) of 1.
